Laboratory results taken from patent US20200079833A1 (AstraZeneca / MedImmune, published 2020).
Blank lines part the entries; values can stand above or below the binder they belong to. Starred links: 1 amine or outer side, 2 acyl side, 3 side chain; linkers in the order of their positions; H or OH if unused. Non-standard residues stand in square brackets, D forms with d. Groups on a side chain read outwards from the residue. Primed or numbered codes have the meaning given here. No end group written: not given here. *: point of attachment. γGlu = O=C(O)[C@H](CCC(=O)[*:2])N[*:1]; Stearoyl = CCCCCCCCCCCCCCCCCC(=O)*; αMeF = C[C@](N)(Cc1ccccc1)C(=O)O; αMeK = C[C@](N)(CCCCN)C(=O)O; αMeS = C[C@](N)(CO)C(=O)O; PEG2′ = not defined here; Aib = CC(C)(N)C(=O)O; Ahx = NCCCCCC(=O)O

Tests used:
Assay in all cases: cell-based or functional assay
[1] = target: T1, glucose-dependent insulinotropic peptide (gastric inhibitory polypeptide) receptor (GIPR) (human, UniProt P48546 22-466)
T1 sequence (looked up): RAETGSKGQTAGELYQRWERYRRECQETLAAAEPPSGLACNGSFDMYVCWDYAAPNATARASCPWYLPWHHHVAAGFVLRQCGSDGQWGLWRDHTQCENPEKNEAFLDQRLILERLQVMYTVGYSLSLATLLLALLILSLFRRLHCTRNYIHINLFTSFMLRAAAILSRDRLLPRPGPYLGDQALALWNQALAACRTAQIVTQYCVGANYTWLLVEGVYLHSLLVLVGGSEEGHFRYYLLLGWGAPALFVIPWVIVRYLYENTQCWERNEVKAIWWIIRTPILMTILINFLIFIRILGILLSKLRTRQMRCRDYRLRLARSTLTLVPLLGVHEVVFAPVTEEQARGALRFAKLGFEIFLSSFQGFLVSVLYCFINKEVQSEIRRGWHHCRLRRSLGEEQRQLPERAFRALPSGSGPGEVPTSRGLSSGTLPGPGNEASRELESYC

[2] = target: GLP-1 receptor (GLP-1R) (human, UniProt P43220 24-463)
[3] = target: glucagon receptor (GCGR) (human, UniProt P47871 26-477)
Sequence of glucagon receptor (GCGR) (P47871 26-477): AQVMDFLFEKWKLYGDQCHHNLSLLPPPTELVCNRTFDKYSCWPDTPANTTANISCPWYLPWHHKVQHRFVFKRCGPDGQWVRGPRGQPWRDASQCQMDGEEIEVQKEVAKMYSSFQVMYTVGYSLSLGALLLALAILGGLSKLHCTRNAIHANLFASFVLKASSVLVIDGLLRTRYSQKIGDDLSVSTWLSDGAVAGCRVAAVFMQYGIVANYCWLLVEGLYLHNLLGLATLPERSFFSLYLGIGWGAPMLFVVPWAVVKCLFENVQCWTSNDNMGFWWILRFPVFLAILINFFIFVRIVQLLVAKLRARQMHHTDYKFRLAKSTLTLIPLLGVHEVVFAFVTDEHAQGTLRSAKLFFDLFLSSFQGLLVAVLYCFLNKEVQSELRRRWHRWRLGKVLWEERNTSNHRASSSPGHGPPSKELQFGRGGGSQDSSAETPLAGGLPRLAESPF

Primary assay EC50 (cAMP), GIP-R, first run [1]: 27 nM
Primary assay EC50 (cAMP), GIP-R, second run [1]: 27 nM
Primary assay EC50 (cAMP), GLP-1R n1 [2]: 0.0079 nM
Primary assay EC50 (cAMP), GLP-1R n2 [2]: 0.005 nM
Primary assay EC50 (cAMP), Mean pM GLP-1R [2]: 6.4 pM
Primary assay EC50 (cAMP), Gluc-R, first run [3]: 27 nM
Primary assay EC50 (cAMP), Gluc-R, second run [3]: 27 nM
Binder: H[Aib]EGS[αMeF]TSDV[αMeS]S[αMeF]LEGEAAK([PEG2′-PEG2′-Stearoyl])E[αMeF]IA[αMeF]VV[αMeK]GG-NH2 [SEQ ID NO 153]

Primary assay EC50 (cAMP), GIP-R, first run [1]: 26 nM
Primary assay EC50 (cAMP), GIP-R, second run [1]: 26 nM
Primary assay EC50 (cAMP), GLP-1R n1 [2]: 0.24 nM
Primary assay EC50 (cAMP), GLP-1R n2 [2]: 0.22 nM
Primary assay EC50 (cAMP), Mean pM GLP-1R [2]: 227 pM
Primary assay EC50 (cAMP), Gluc-R, first run [3]: 26 nM
Primary assay EC50 (cAMP), Gluc-R, second run [3]: 26 nM
B3: SEQ ID NO 157 (peptide)
peptide: H[Aib]EGS[αMeF]TSDV[αMeS]S[αMeF]LEGEAAK([γGlu-γGlu-γGlu-Stearoyl])E[αMeF]IA[αMeF]VV[αMeK]GG-NH2
modifications: N-terminus assumed
SMILES: CCCCCCCCCCCCCCCCCC(=O)N[C@@H](CCC(=O)N[C@@H](CCC(=O)N[C@@H](CCC(=O)NCCCC[C@H](NC(=O)[C@H](C)NC(=O)[C@H](C)NC(=O)[C@H](CCC(=O)O)NC(=O)CNC(=O)[C@H](CCC(=O)O)NC(=O)[C@H](CC(C)C)NC(=O)[C@](C)(Cc1ccccc1)NC(=O)[C@H](CO)NC(=O)[C@](C)(CO)NC(=O)[C@@H](NC(=O)[C@H](CC(=O)O)NC(=O)[C@H](CO)NC(=O)[C@@H](NC(=O)[C@](C)(Cc1ccccc1)NC(=O)[C@H](CO)NC(=O)CNC(=O)[C@H](CCC(=O)O)NC(=O)C(C)(C)NC(=O)[C@@H](N)Cc1c[nH]cn1)[C@@H](C)O)C(C)C)C(=O)N[C@@H](CCC(=O)O)C(=O)N[C@@](C)(Cc1ccccc1)C(=O)N[C@H](C(=O)N[C@@H](C)C(=O)N[C@@](C)(Cc1ccccc1)C(=O)N[C@H](C(=O)N[C@H](C(=O)N[C@@](C)(CCCCN)C(=O)NCC(=O)NCC(N)=O)C(C)C)C(C)C)[C@@H](C)CC)C(=O)O)C(=O)O)C(=O)O

Primary assay EC50 (cAMP), GIP-R, first run [1]: 28 nM
Primary assay EC50 (cAMP), GIP-R, second run [1]: 28 nM
Primary assay EC50 (cAMP), GLP-1R n1 [2]: 0.14 nM
Primary assay EC50 (cAMP), GLP-1R n2 [2]: 0.16 nM
Primary assay EC50 (cAMP), Mean pM GLP-1R [2]: 148 pM
Primary assay EC50 (cAMP), Gluc-R, first run [3]: 28 nM
Primary assay EC50 (cAMP), Gluc-R, second run [3]: 28 nM
B4: SEQ ID NO 158 (peptide)
peptide: H[Aib]EGS[αMeF]TSDV[αMeS]S[αMeF]LEGEAAK([Ahx-Stearoyl])E[αMeF]IA[αMeF]VV[αMeK]GG-NH2
modifications: N-terminus assumed
SMILES: CCCCCCCCCCCCCCCCCC(=O)NCCCCCC(=O)NCCCC[C@H](NC(=O)[C@H](C)NC(=O)[C@H](C)NC(=O)[C@H](CCC(=O)O)NC(=O)CNC(=O)[C@H](CCC(=O)O)NC(=O)[C@H](CC(C)C)NC(=O)[C@](C)(Cc1ccccc1)NC(=O)[C@H](CO)NC(=O)[C@](C)(CO)NC(=O)[C@@H](NC(=O)[C@H](CC(=O)O)NC(=O)[C@H](CO)NC(=O)[C@@H](NC(=O)[C@](C)(Cc1ccccc1)NC(=O)[C@H](CO)NC(=O)CNC(=O)[C@H](CCC(=O)O)NC(=O)C(C)(C)NC(=O)[C@@H](N)Cc1c[nH]cn1)[C@@H](C)O)C(C)C)C(=O)N[C@@H](CCC(=O)O)C(=O)N[C@@](C)(Cc1ccccc1)C(=O)N[C@H](C(=O)N[C@@H](C)C(=O)N[C@@](C)(Cc1ccccc1)C(=O)N[C@H](C(=O)N[C@H](C(=O)N[C@@](C)(CCCCN)C(=O)NCC(=O)NCC(N)=O)C(C)C)C(C)C)[C@@H](C)CC

Primary assay EC50 (cAMP), GIP-R, first run [1]: 27 nM
Primary assay EC50 (cAMP), GIP-R, second run [1]: 27 nM
Primary assay EC50 (cAMP), GLP-1R n1 [2]: 0.28 nM
Primary assay EC50 (cAMP), GLP-1R n2 [2]: 0.23 nM
Primary assay EC50 (cAMP), Mean pM GLP-1R [2]: 254 pM
Primary assay EC50 (cAMP), Gluc-R, first run [3]: 27 nM
Primary assay EC50 (cAMP), Gluc-R, second run [3]: 27 nM
B5: SEQ ID NO 159 (peptide)
peptide: H[Aib]EGS[αMeF]TSDV[αMeS]S[αMeF]LEGEAAK([Ahx-Ahx-Stearoyl])E[αMeF]IA[αMeF]VV[αMeK]GG-NH2
modifications: N-terminus assumed
SMILES: CCCCCCCCCCCCCCCCCC(=O)NCCCCCC(=O)NCCCCCC(=O)NCCCC[C@H](NC(=O)[C@H](C)NC(=O)[C@H](C)NC(=O)[C@H](CCC(=O)O)NC(=O)CNC(=O)[C@H](CCC(=O)O)NC(=O)[C@H](CC(C)C)NC(=O)[C@](C)(Cc1ccccc1)NC(=O)[C@H](CO)NC(=O)[C@](C)(CO)NC(=O)[C@@H](NC(=O)[C@H](CC(=O)O)NC(=O)[C@H](CO)NC(=O)[C@@H](NC(=O)[C@](C)(Cc1ccccc1)NC(=O)[C@H](CO)NC(=O)CNC(=O)[C@H](CCC(=O)O)NC(=O)C(C)(C)NC(=O)[C@@H](N)Cc1c[nH]cn1)[C@@H](C)O)C(C)C)C(=O)N[C@@H](CCC(=O)O)C(=O)N[C@@](C)(Cc1ccccc1)C(=O)N[C@H](C(=O)N[C@@H](C)C(=O)N[C@@](C)(Cc1ccccc1)C(=O)N[C@H](C(=O)N[C@H](C(=O)N[C@@](C)(CCCCN)C(=O)NCC(=O)NCC(N)=O)C(C)C)C(C)C)[C@@H](C)CC

Further lines, the binder ahead of its results:

Binder: H[Aib]EGS[αMeF]TSDV[αMeS]S[αMeF]LEGEAAK([PEG2′-PEG2′-PEG2′-Stearoyl])E[αMeF]IA[αMeF]VV[αMeK]GG-NH2 [SEQ ID NO 154]
Primary assay EC50 (cAMP), GIP-R, first run [1]: 26 nM
Primary assay EC50 (cAMP), GIP-R, second run [1]: 26 nM
Primary assay EC50 (cAMP), GLP-1R n1 [2]: 0.0028 nM
Primary assay EC50 (cAMP), GLP-1R n2 [2]: 0.0023 nM
Primary assay EC50 (cAMP), Mean pM GLP-1R [2]: 2.5 pM
Primary assay EC50 (cAMP), Gluc-R, first run [3]: 26 nM
Primary assay EC50 (cAMP), Gluc-R, second run [3]: 26 nM

B1: SEQ ID NO 155 (peptide)
peptide: H[Aib]EGS[αMeF]TSDV[αMeS]S[αMeF]LEGEAAK([γGlu-Stearoyl])E[αMeF]IA[αMeF]VV[αMeK]GG-NH2
modifications: N-terminus assumed
SMILES: CCCCCCCCCCCCCCCCCC(=O)N[C@@H](CCC(=O)NCCCC[C@H](NC(=O)[C@H](C)NC(=O)[C@H](C)NC(=O)[C@H](CCC(=O)O)NC(=O)CNC(=O)[C@H](CCC(=O)O)NC(=O)[C@H](CC(C)C)NC(=O)[C@](C)(Cc1ccccc1)NC(=O)[C@H](CO)NC(=O)[C@](C)(CO)NC(=O)[C@@H](NC(=O)[C@H](CC(=O)O)NC(=O)[C@H](CO)NC(=O)[C@@H](NC(=O)[C@](C)(Cc1ccccc1)NC(=O)[C@H](CO)NC(=O)CNC(=O)[C@H](CCC(=O)O)NC(=O)C(C)(C)NC(=O)[C@@H](N)Cc1c[nH]cn1)[C@@H](C)O)C(C)C)C(=O)N[C@@H](CCC(=O)O)C(=O)N[C@@](C)(Cc1ccccc1)C(=O)N[C@H](C(=O)N[C@@H](C)C(=O)N[C@@](C)(Cc1ccccc1)C(=O)N[C@H](C(=O)N[C@H](C(=O)N[C@@](C)(CCCCN)C(=O)NCC(=O)NCC(N)=O)C(C)C)C(C)C)[C@@H](C)CC)C(=O)O
Primary assay EC50 (cAMP), GIP-R, first run [1]: 28 nM
Primary assay EC50 (cAMP), GIP-R, second run [1]: 28 nM
Primary assay EC50 (cAMP), GLP-1R n1 [2]: 0.29 nM
Primary assay EC50 (cAMP), GLP-1R n2 [2]: 0.19 nM
Primary assay EC50 (cAMP), Mean pM GLP-1R [2]: 238 pM
Primary assay EC50 (cAMP), Gluc-R, first run [3]: 28 nM
Primary assay EC50 (cAMP), Gluc-R, second run [3]: 28 nM

B2: SEQ ID NO 156 (peptide)
peptide: H[Aib]EGS[αMeF]TSDV[αMeS]S[αMeF]LEGEAAK([γGlu-γGlu-Stearoyl])E[αMeF]IA[αMeF]VV[αMeK]GG-NH2
modifications: N-terminus assumed
SMILES: CCCCCCCCCCCCCCCCCC(=O)N[C@@H](CCC(=O)N[C@@H](CCC(=O)NCCCC[C@H](NC(=O)[C@H](C)NC(=O)[C@H](C)NC(=O)[C@H](CCC(=O)O)NC(=O)CNC(=O)[C@H](CCC(=O)O)NC(=O)[C@H](CC(C)C)NC(=O)[C@](C)(Cc1ccccc1)NC(=O)[C@H](CO)NC(=O)[C@](C)(CO)NC(=O)[C@@H](NC(=O)[C@H](CC(=O)O)NC(=O)[C@H](CO)NC(=O)[C@@H](NC(=O)[C@](C)(Cc1ccccc1)NC(=O)[C@H](CO)NC(=O)CNC(=O)[C@H](CCC(=O)O)NC(=O)C(C)(C)NC(=O)[C@@H](N)Cc1c[nH]cn1)[C@@H](C)O)C(C)C)C(=O)N[C@@H](CCC(=O)O)C(=O)N[C@@](C)(Cc1ccccc1)C(=O)N[C@H](C(=O)N[C@@H](C)C(=O)N[C@@](C)(Cc1ccccc1)C(=O)N[C@H](C(=O)N[C@H](C(=O)N[C@@](C)(CCCCN)C(=O)NCC(=O)NCC(N)=O)C(C)C)C(C)C)[C@@H](C)CC)C(=O)O)C(=O)O
Primary assay EC50 (cAMP), GIP-R, first run [1]: 27 nM
Primary assay EC50 (cAMP), GIP-R, second run [1]: 27 nM
Primary assay EC50 (cAMP), GLP-1R n1 [2]: 0.11 nM
Primary assay EC50 (cAMP), GLP-1R n2 [2]: 0.1 nM
Primary assay EC50 (cAMP), Mean pM GLP-1R [2]: 105 pM
Primary assay EC50 (cAMP), Gluc-R, first run [3]: 27 nM
Primary assay EC50 (cAMP), Gluc-R, second run [3]: 27 nM
